# Results from publication PMC10080908.
# Where “and” joins values, the source holds several entries; their conditions need not be identical. Identical values can stand only once.
# Columns and labels:
# [1] = molecular target: UBXN7-WT (human) (UniProt O94888); assay: ITC; VP-ITC; 200 µM RNF111 RING domain injected (20 x 10 µl) into 10 µM UBXN7-WT or UBXN7-UAS, or into 15 µM UBXN7-∆UAS, in the cell; 25 °C; phosphate-buffered saline pH 7.4, 1 mM TCEP; single binding site model
# [2] = molecular target: UBXN7-UAS recombinant protein (human) (UniProt O94888); assay: ITC; VP-ITC, 25 °C, PBS pH 7.4 with 1 mM TCEP; 200 µM RNF111 RING domain injected (20 x 10 µl) into 10 µM UBXN7-WT or UBXN7-UAS or 15 µM UBXN7-∆UAS; single binding site model
# [3] = molecular target: UBXN7-WT (human) (UniProt O94888); assay: as above
# UBXN7-WT (human), sequence (O94888 whole entry, the tested form may be a part): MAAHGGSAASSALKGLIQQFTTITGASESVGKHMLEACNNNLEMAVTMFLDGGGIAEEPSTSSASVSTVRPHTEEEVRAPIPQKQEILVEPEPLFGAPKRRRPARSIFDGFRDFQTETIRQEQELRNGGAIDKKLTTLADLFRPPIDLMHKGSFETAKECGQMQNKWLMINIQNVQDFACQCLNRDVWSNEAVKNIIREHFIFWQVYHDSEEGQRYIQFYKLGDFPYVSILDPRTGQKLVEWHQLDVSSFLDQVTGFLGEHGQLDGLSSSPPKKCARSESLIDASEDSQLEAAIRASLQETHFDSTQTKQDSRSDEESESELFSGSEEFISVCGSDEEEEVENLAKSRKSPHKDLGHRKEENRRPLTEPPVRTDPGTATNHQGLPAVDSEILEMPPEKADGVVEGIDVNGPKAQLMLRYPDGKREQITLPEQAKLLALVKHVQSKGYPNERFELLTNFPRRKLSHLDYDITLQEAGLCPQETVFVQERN
# UBXN7-UAS recombinant protein (human), sequence (O94888 94-284): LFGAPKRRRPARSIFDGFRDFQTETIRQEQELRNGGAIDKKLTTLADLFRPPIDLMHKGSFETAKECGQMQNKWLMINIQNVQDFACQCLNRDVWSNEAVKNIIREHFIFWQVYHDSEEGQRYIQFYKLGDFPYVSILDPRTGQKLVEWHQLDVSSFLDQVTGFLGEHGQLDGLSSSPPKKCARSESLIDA
Kd [1],stoichiometry N [1],Kd ([1]; mean),stoichiometry N ([1]; mean),Kd [2],stoichiometry N [2],Kd [3],stoichiometry N [3],Substance
2.49 µM and 2.26 µM,0.928 and 1.11,2.37 µM,1.02,–,–,–,–,"RNF111 RING domain (RNF111-RING, aa 895 to Cter) (domain or fragment)"
–,–,–,–,0.9 µM,1,2.3 µM,1,RNF111-RING recombinant protein (domain or fragment)
